In patent US9370555B2, “Surfactant protein D for the treatment of disorders associated with lung injury” (priority 1998, dated 2016):
Entries after “also recorded” stand apart in the source; their conditions may differ.

Key:
[1] = Surface tension by captive bubble surfactometer; assay type: physicochemical; details: 15 μg/μL SURVANTA with 2% rhSP-D or buffer
Description: (§1) Surface tension was measured by captive bubble surfactometer (Schoel M, et al. The captive bubble method for the evaluation of pulmonary surfactant: surface tension, area, and volume calculations. Biochim Biophys Acta 1994; 1200:281-290) on 3 μL of samples containing 15 μg/μL […]® and 2% rhSP-D or buffer in the presence or absence of surfactant inhibitor (21 μg/μL plasma protein) (Ikegami M, et al. Characteristics of surfactant from SP-A deficient mice. Am J Physiol Lung Cell Mol Physiol 1998; 275:L247-L25). This amount of plasma protein relative to […]® was 30% lower than the concentration that is known to inhibit the activity of […]® in the ventilated premature newborn lamb lung in vivo (Wada K, et al. Tidal volume effects on surfactant treatment responses with the initiation of ventilation in preterm lambs. J Appl Physiol 1997; 83:1054-1061). The influence of rhSP-D on the ultrastructure of […]® was studied as previously described (Schmiedl A, et al. Influence of plasma and inflammatory proteins on the ultrastructure of exogenous surfactant. J Electron Microsc (Tokyo) 2004; 53:407-416).

premature lambs [2] = assay: Pulmonary inflammation in ventilated premature lambs (BALF cells, NE activity, cytokine mRNA and protein, flow cytometry); assay type: in vivo, sheep
Description: A five hour study period was chosen to detect changes in proinflammatory cytokine mRNAs induced by initial ventilation (Naik A S, et al. Effects of ventilation with different positive end-expiratory pressures on cytokine expression in the preterm lamb lung. Am J Respir Crit Care Med 2001; 164:494-498). After five hours, lambs were ventilated with FiO2=1 for five minutes, then given 100 mg pentobarbital intravascularly, after which the endotracheal tube was clamped to permit oxygen absorption atelectasis (Ikegami M, et al. Intratracheal recombinant surfactant protein D prevents endotoxin shock in the newborn preterm lamb. Am J Respir Crit Care Med 2006; 173:1342-1347; Ikegami M, Jobe A. Postnatal lung inflammation increased by ventilation of preterm lambs exposed antenatally to E. coli endotoxin. Pediatr Res 2002; 52:356-362). After the thorax was opened, the deflation limb of pressure-volume curve was measured (Kramer B W, et al. Surfactant protein A recruits neutrophils into the lungs of ventilated preterm lambs. Am J Respir Crit Care Med 2001; 163:158-165; Ikegami M, et al. Intratracheal recombinant surfactant protein D prevents endotoxin shock in the newborn preterm lamb. Am J Respir Crit Care Med 2006; 173:1342-1347). Lung tissue of the right lower lobe was frozen in liquid nitrogen for RNA isolation and measurement of neutrophil elastase (NE) activity (Lowry O H, et al. Protein measurement with the Folin phenol reagent. J Biol Chem 1951; 193:265-275; Watterberg K L, et al. Secretory leukocyte protease inhibitor and lung inflammation in developing bronchopulmonary dysplasia. J Pediatr 1994; 125:264-269). NE is a potent serine proteinase, responsible for tissue destruction in the adult lung with emphysema (Shapiro S D, et al. Neutrophil elastase contributes to cigarette smoke-induced emphysema in mice. Am J Pathol 2003; 163:2329-2335). In the preterm newborn lung, increased NE activity affects lung remodeling and increases alveolar epithelial apoptosis and the development of BPD (Watterberg K L, et al. Secretory leukocyte protease inhibitor and lung inflammation in developing bronchopulmonary dysplasia. J Pediatr 1994; 125:264-269; Yasumatsu R, et al. SERPINB1 upregulation is associated with in vivo complex formation with neutrophil elastase and cathepsin G in a baboon model of bronchopulmonary dysplasia. Am J Physiol Lung Cell Mol Physiol 2006; 291:L619-L627). NE activity was assessed by a spectrophotometric assay using a chromogenic substrate specific for NE, N-methoxy-succinyl-Ala-Ala-Pro-Val pNA (Yasumatsu R, et al. SERPINB1 upregulation is associated with in vivo complex formation with neutrophil elastase and cathepsin G in a baboon model of bronchopulmonary dysplasia. Am J Physiol Lung Cell Mol Physiol 2006; 291:L619-L627).
; Lung tissue of the right middle lobe was homogenized in 0.9% NaCl and supernatant after centrifugation at 1,000×g for 15 minutes and frozen for ELISA of proinflammatory cytokine proteins (Kramer B W, et al. Surfactant protein A recruits neutrophils into the lungs of ventilated preterm lambs. Am J Respir Crit Care Med 2001; 163:158-165; Ikegami M, et al. Intratracheal recombinant surfactant protein D prevents endotoxin shock in the newborn preterm lamb. Am J Respir Crit Care Med 2006; 173:1342-1347). BALF was recovered from the left lung (Ikegami M, et al. Whitsett J A. Intratracheal recombinant surfactant protein D prevents endotoxin shock in the newborn preterm lamb. Am J Respir Crit Care Med 2006; 173:1342-1347) for further analyses. Total proteins were analyzed (Lowry O H, et al. Protein measurement with the Folin phenol reagent. J Biol Chem 1951; 193:265-275) in the supernatant of BALF after 10 minutes of centrifugation at 284×g. The right upper lobe was inflation-fixed at 30 cm H2O for morphology (Ikegami M, et al. Surfactant protein-D regulates the postnatal maturation of pulmonary surfactant lipid pool sizes. J Appl Physiol 2009; 106:1545-1552). […]

premature lambs [3] = assay: Lung function and morphology in ventilated premature lambs; assay type: in vivo, sheep
[4] = Ultrastructure of surfactant mixtures (electron micrographs); assay type: physicochemical; details: SURVANTA mixed with buffer or rhSP-D
Description: as §1

[5] = CD45-positive cells from BALF, flow cytometry
[6] = premature lambs, five hours of ventilation, +rhSP-D vs control
[7] = premature lambs, mean levels decreased by rhSP-D

B1: rhSP-D: recombinant human surfactant protein D, given mixed with SURVANTA to premature lambs (protein, UniProt P35247 21-375, looked up)
Pulmonary …: AEMKTYSHRTMPSACTLVMCSSVESGLPGRDGRDGREGPRGEKGDPGLPGAAGQAGMPGQAGPVGPKGDNGSVGEPGPKGDTGPSGPPGPPGVPGPAGREGPLGKQGNIGPQGKPGPKGEAGPKGEVGAPGMQGSAGARGLAGPKGERGVPGERGVPGNTGAAGSAGAMGPQGSPGARGPPGLKGDKGIPGDKGAKGESGLPDVASLRQQVEALQGQVQHLQAAFSQYKKVELFPNGQSVGEKIFKTAGFVKPFTEAQLLCTQAGGQLASPRSAAENAALQQLVVAKNEAAFLSMTDSKTEGKFTYPTGESLVYSNWAPGEPNDDGGSEDCVEIFTNGKWNDRACGEKRLVVCEF
minimum surface tension ([1]; absence of plasma protein): low
minimum surface tension ([1]; presence of surfactant inhibitor (21 μg/μL plasma protein)): remaining low; also recorded: low minimum surface tension in the presence of plasma protein
expression of CD11b (premature lambs [2]; [5]): did not influence expression
expression of CD44 (premature lambs [2]; [5]): did not influence expression
proteins in BALF (premature lambs [2]; premature lambs, +rhSP-D group, control group 60±7): 57 ± 11 mg/kg
lung inflammation (premature lambs [2]; premature lambs, five hours of ventilation): decreased in all the lambs treated with rhSP-D
neutrophils in BALF (premature lambs [2]; [6]): significantly decreased; also recorded: suppressed
total inflammatory cell numbers in BALF (premature lambs [2]; [6]): significantly decreased; also recorded: suppressed
IL-1β protein in the lung (premature lambs [2]; premature lambs, ELISA): not significantly influenced
IL-8 protein in lung homogenates (premature lambs [2]; premature lambs, ELISA, +rhSP-D vs control): significantly decreased
IL-1β mRNA in the lung (premature lambs [2]; premature lambs, RT-PCR): not significantly influenced; also recorded: generally lower
IL-8 mRNA in the lung (premature lambs [2]; premature lambs, RT-PCR, +rhSP-D vs control): significantly decreased; also recorded: significantly suppressed
TNF-α mRNA expression (premature lambs [2]; premature lambs, data not shown): similarly present at low levels in both groups
KC mRNA in the lung (premature lambs [2]; [7]): not significantly different; also recorded: generally lower
MCP1 mRNA in the lung (premature lambs [2]; [7]): not significantly different; also recorded: generally lower
IL-6 mRNA expression in the lung (premature lambs [2]; premature lambs, mean, P=0.06, not statistically significant): generally lower
IL-6 protein in the lung (premature lambs [2]; premature lambs, mean, P=0.1, not statistically significant): lower
neutrophil elastase (NE) activity in the lung (premature lambs [2]; premature lambs, rhSP-D added to SURVANTA vs control, P<0.05): decreased NE activity
mean PIP required to regulate VT at 8 to 9 ml/kg (premature lambs [3]; premature lambs after surfactant at 20 minutes of age, same for controls): 27 cm H2O
Po2/Fio2 (premature lambs [3]; premature lambs, 7 mg rhSP-D mixed with SURVANTA 100 mg/kg vs SURVANTA+buffer control, P<0.01): higher
alveolar fluid (premature lambs [3]; premature lambs, +rhSP-D vs control): More fluid was noted in alveoli of the control lambs; also recorded: More alveolar fluid was observed in control lambs
modified ventilation index (MVI) (premature lambs [3]; premature lambs, +rhSP-D vs control, after 240 minutes, not statistically significant): tends to be better (lower)
deflation limb of pressure-volume curves (premature lambs [3]; premature lambs, +rhSP-D vs control, after five hours): not different
ultrastructure of surfactant [4]: causing the formation of lipid aggregates and multilayers; also recorded: from simple lipid layers to the mixture of multiple lipid layers and lipid aggregates
